Source: patent US10398755B2, “Clusterin pharmaceuticals and treatment methods using the same” (UNIVERSITY OF SOUTHERN CALIFORNIA, priority 2009, dated 2019)

Key:
HA-tagged MMP-9 = biological target: T1, HA-tagged MMP-9 (Mus musculus, UniProt P41245); assay: Immunoprecipitation assay in co-transfected HEK293 cells; assay type: cell-based
T1 construct: carrying the mouse full length cDNA of Myc-tagged CLU (CLU) or HA-tagged MMP-9 (MMP-9) were transfected; expressed in transfected cells; host or cells: HEK293
Protocol: (A) pcDNA 3.1 (+) expression vectors carrying the mouse full length cDNA of Myc-tagged CLU (CLU) or HA-tagged MMP-9 (MMP-9) were transfected, alone (CLU or MMP-9) or combined (CLU+MMP-9), into HEK293 cells. Using the whole cell lysates of the transfected cells, immunoprecipitation (IP) with anti-HA antibody was performed to pull down MMP-9, and then the eluted samples were subjected to immunoblotting (denaturing 4-15% gradient SDS/PAGE gel) (IB) using anti-Myc antibody to detect CLU. The bands indicated by arrows are consistent to the forms of CLU undergoing intracellular processing. in, whole cell lysate used as input; IP, immunoprecipitated sample; Unc, Uncleaved CLU protein; β, β subunit of CLU. (B) Confocal microscopy of MMP-9 and CLU in HCLE cells. Nuclei were stained with DAPI, MMP-9 was detected by rhodamine-conjuated antibody, and CLU by FITC-conjugated antibody. In control, primary antibodies were omitted. The images were taken at 400× magnification. […]
Next, we tested whether MMP-9/CLU interaction also occurs in vivo. […] We also recognized that a stronger band of ˜50 KDa, compared with the other two IP lanes, was detected in co-transfected IP lane, which might be a non-glycosylated full-length form of CLU. […]

GST-MMP-9 = assay: GST pull-down assay with GST-tagged MMP-9; assay type: binding, mouse; details: presence or absence of bacterial lysate
Protocol: (A) GST-tagged MMP-9 was purified from the bacterial cells transformed by the expression vector, and immobilized to the anti-GST-beads to prepare MMP-9-GST beads. Purified CLU-HA was incubated with MMP-9-GST beads (M-GST) or GST-beads (GST) in the presence (+Lysate) or absence (−Lysate) of bacterial lysate, followed by washing the beads with binding buffer. Bound proteins were resolved on denaturing 8% SDS/PAGE gel for the immunoblotting with anti-HA antibody. CLU cDNA detected in the yeast two hybrid assay, which corresponds to the CLU coding sequence beginning at position 212 from the ATG site, was used to produce a protein band of approximately 40 KDa. (B) Gelatin (20 μg) and CLU (2 μg) were mixed and incubated in the presence or absence of active MMP-9, followed by denaturing 12% SDS/PAGE gel electrophoresis, which then was stained with Coomasie blue. Two subunits of CLU are designated as α and β.
The GST tagged MMP-9 constructs were generated by ligation of the pGB-MMP-9 EcoR I/Sal I inserts into the pGEX 4T vector (Amersham, Piscataway, N.J.). The pGEX 4T MMP-9 constructs were transformed into the E. Coli strain BL21(DE3) (Novagen, Gibbstown, N.J.) for expression. […]
To further confirm the interaction between MMP-9 and CLU that was detected by yeast two hybrid screening, we performed GST pull down assay using recombinant GST-tagged MMP-9 fusion protein. […]

GST-MMP-9, sequence (P41245 109-730 limits assumed): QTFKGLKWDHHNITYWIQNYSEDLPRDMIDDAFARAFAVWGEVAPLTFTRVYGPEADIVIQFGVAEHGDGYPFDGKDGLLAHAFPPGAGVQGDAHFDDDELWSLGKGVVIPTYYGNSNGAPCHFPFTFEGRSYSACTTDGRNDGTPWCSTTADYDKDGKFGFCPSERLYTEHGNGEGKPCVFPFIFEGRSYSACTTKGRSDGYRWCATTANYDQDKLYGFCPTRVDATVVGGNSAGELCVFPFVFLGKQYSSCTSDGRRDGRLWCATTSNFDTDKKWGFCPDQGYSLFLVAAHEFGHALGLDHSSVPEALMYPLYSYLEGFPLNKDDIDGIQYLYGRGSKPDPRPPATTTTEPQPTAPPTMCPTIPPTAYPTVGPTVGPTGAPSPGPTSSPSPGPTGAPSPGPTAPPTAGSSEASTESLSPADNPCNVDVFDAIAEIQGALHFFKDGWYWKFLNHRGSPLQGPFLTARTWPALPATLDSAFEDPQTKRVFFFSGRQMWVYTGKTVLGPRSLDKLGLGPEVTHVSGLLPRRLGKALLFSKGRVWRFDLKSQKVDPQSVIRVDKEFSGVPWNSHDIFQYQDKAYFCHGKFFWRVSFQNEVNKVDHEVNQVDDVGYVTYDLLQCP
T1 sequence (P41245 108-730): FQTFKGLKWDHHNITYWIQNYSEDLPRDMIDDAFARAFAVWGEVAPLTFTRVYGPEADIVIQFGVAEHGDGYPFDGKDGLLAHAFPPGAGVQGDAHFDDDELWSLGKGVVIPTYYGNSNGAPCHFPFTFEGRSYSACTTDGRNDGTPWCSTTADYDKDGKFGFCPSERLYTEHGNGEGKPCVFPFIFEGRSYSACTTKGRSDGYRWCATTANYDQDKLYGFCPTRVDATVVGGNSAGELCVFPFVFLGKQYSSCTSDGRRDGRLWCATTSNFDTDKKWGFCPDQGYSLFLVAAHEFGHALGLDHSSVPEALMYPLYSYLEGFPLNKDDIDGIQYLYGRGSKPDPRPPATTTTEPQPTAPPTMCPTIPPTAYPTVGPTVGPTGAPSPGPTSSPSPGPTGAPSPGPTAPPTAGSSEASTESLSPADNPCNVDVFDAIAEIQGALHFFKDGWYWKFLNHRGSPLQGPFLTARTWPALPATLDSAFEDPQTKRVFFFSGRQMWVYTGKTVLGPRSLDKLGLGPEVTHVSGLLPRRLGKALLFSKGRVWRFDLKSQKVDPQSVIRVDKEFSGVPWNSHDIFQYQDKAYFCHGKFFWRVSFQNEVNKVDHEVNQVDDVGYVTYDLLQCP

B1: CLU: secreted disulfide-linked heterodimeric glycoprotein (70-80 KD); assays used recombinant mouse CLU with C-terminal (His)6 (protein, UniProt Q06890 22-448, looked up)
Clusterin: EQEVSDNELQELSTQGSRYINKEIQNAVQGVKHIKTLIEKTNAERKSLLNSLEEAKKKKEDALEDTRDSEMKLKAFPEVCNETMMALWEECKPCLKHTCMKFYARVCRSGSGLVGQQLEEFLNQSSPFYFWMNGDRIDSLLESDRQQSQVLDAMQDSFARASGIIDTLFQDRFFARELHDPHYFSPIGFPHKRPHFLYPKSRLVRSLMSPSHYGPPSFHNMFQPFFEMIHQAQQAMDVQLHSPAFQFPDVDFLREGEDDRTVCKEIRRNSTGCLKMKGQCEKCQEILSVDCSTNNPAQANLRQELNDSLQVAERLTEQYKELLQSFQSKMLNTSSLLEQLNDQFNWVSQLANLTQGEDKYYLRVSTVTTHSSDSEVPSRVTEVVVKLFDSDPITVVLPEEVSKDNPKFMDTVAEKALQEYRRKSRAE
modifications: C-terminal His6 tag
co-immunoprecipitation of Myc-tagged CLU with HA-tagged MMP-9 (HA-tagged MMP-9): interact in vivo even before processing of the proteins
interaction of HA-tagged CLU with GST-MMP-9 (GST-MMP-9): still interacted even in the presence of the bacterial lysate
